In patent US20210246166A1 (Bayer, published 2021):
Numbered stars: 1 amine (or outer) side, 2 acyl side, 3 side chain; on linkers, the order of the positions; unused ones are H or OH. Bridge positions count the residues as written; N and C are the ends. Square brackets hold non-standard residues; d marks the D form. Ends that are not written are not given here. * marks the point of attachment. (N-Benzyl)D = (2S)-2-Amino-4-(benzylamino)-4-oxobutanecarboxylic acid, O=C(C[C@H](N[*:1])C(=O)[*:2])NCc1ccccc1; βDap = *Dap: Dap linked through its additional amino group, O=C([C@H](CN[*:1])N[*:3])[*:2]; X4 = (1S,3R)‑3‑(Amino)cyclopentanecarboxylic acid, O=C([C@H]1CC[C@@H](N[*:1])C1)[*:2]; X9 = (S)‑3‑(1-Pyrrolidine-2-yl)‑propionic acid, O=C(CC[C@@H]1CCCN1[*:1])[*:2]; X11 = (S)‑Piperidine‑3‑carboxylic acid, O=C([C@H]1CCCN([*:1])C1)[*:2]; X14 = (2,4-dioxoimidazolidin-1-yl)acetic acid, O=C1CN(CC(=O)*)C(=O)N1; Nip(3R) = O=C([C@@H]1CCCN([*:1])C1)[*:2]; Oic = O=C(O)[C@@H]1C[C@@H]2CCCC[C@@H]2N1; βPro(3S) = O=C([C@H]1CCN([*:1])C1)[*:2]; Pen = CC(C)(S)[C@H](N)C(=O)O; β3hP = O=C(O)C[C@@H]1CCCN1; NMeA = CN[C@@H](C)C(=O)O; Dap = NC[C@H](N)C(=O)O; Ahx = NCCCCCC(=O)O; Sar = CNCC(=O)O

T1: recombinant rat MASP1 active protease (amino acids 302-704, C-terminal His Tag) (rat, UniProt Q8CHN8 302-704)
T1 sequence: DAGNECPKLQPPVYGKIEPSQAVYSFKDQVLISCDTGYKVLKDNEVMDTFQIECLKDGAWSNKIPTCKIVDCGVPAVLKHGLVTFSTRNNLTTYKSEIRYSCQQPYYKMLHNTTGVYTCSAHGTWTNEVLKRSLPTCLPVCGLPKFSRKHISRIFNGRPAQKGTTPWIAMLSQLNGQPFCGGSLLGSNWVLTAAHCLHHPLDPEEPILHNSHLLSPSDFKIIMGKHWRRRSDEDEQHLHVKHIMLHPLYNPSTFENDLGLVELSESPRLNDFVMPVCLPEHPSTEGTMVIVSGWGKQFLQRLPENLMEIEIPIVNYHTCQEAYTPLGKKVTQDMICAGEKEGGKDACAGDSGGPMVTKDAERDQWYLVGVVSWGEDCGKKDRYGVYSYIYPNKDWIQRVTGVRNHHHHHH


Assays:
[1] = target: T1, recombinant rat MASP1 active protease …; assay: cell-based or functional assay
[2] = target: recombinant rat MASP2 active protease (amino acids 296-685, C-terminal His Tag) (rat, UniProt Q9JJS8 296-685); assay: cell-based or functional assay
recombinant rat MASP2 active protease (amino acids 296-685, C-terminal His Tag), sequence (Q9JJS8 other isoform, or with tags, fused parts or gaps limits assumed): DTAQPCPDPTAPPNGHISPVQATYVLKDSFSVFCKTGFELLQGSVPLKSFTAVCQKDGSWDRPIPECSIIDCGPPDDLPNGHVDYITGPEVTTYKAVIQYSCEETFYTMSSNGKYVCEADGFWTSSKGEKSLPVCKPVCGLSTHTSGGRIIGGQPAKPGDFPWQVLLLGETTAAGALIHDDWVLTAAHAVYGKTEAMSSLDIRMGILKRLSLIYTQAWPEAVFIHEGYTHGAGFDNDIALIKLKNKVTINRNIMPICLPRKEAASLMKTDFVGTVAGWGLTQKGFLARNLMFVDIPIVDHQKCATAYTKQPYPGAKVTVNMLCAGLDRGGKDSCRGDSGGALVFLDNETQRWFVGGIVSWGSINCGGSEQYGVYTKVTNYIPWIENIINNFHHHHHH

rat MASP1 IC50 [1] | rat MASP2 IC50 [2] | Binder
94 nM | 120 nM | [Sar]ICSRSLP[Oic]I[Pen]IPGD-OH (disulfide 3-11; N-terminus assumed; SMILES CC[C@H](C)[C@H](NC(=O)CNC)C(=O)N[C@H]1CSSC(C)(C)[C@@H](C(=O)N[C@H](C(=O)N2CCC[C@H]2C(=O)NCC(=O)N[C@@H](CC(=O)O)C(=O)O)[C@@H](C)CC)NC(=O)[C@H]([C@@H](C)CC)NC(=O)[C@@H]2C[C@@H]3CCCC[C@@H]3N2C(=O)[C@@H]2CCCN2C(=O)[C@H](CC(C)C)NC(=O)[C@H](CO)NC(=O)[C@H](CCCNC(=N)N)NC(=O)[C@H](CO)NC1=O) [Example 464: ((N-Me)G)-IC+SRSLP-(Oic)-I-(Pen)+IPGD-OH]
17.6 nM | 72 nM | [Sar]ICSRSLP[Oic]I[Pen]IPDD-OH (disulfide 3-11; N-terminus assumed; SMILES CC[C@H](C)[C@H](NC(=O)CNC)C(=O)N[C@H]1CSSC(C)(C)[C@@H](C(=O)N[C@H](C(=O)N2CCC[C@H]2C(=O)N[C@@H](CC(=O)O)C(=O)N[C@@H](CC(=O)O)C(=O)O)[C@@H](C)CC)NC(=O)[C@H]([C@@H](C)CC)NC(=O)[C@@H]2C[C@@H]3CCCC[C@@H]3N2C(=O)[C@@H]2CCCN2C(=O)[C@H](CC(C)C)NC(=O)[C@H](CO)NC(=O)[C@H](CCCNC(=N)N)NC(=O)[C@H](CO)NC1=O) [Example 466: ((N-Me)G)-IC+SRSLP-(Oic)-I-(Pen)+IPDD-OH]
190 nM | 100 nM | [Sar]ICSRSLP[Oic]I[Pen]IPDK-OH (disulfide 3-11; N-terminus assumed; SMILES CC[C@H](C)[C@H](NC(=O)CNC)C(=O)N[C@H]1CSSC(C)(C)[C@@H](C(=O)N[C@H](C(=O)N2CCC[C@H]2C(=O)N[C@@H](CC(=O)O)C(=O)N[C@@H](CCCCN)C(=O)O)[C@@H](C)CC)NC(=O)[C@H]([C@@H](C)CC)NC(=O)[C@@H]2C[C@@H]3CCCC[C@@H]3N2C(=O)[C@@H]2CCCN2C(=O)[C@H](CC(C)C)NC(=O)[C@H](CO)NC(=O)[C@H](CCCNC(=N)N)NC(=O)[C@H](CO)NC1=O) [Example 463: ((N-Me)G)-IC+SRSLP-(Oic)-I-(Pen)+IPDK-OH]
72 nM | 140 nM | [Sar]ICSRSLP[Oic]I[Pen]IPD[Ahx]-OH (disulfide 3-11; N-terminus assumed; SMILES CC[C@H](C)[C@H](NC(=O)CNC)C(=O)N[C@H]1CSSC(C)(C)[C@@H](C(=O)N[C@H](C(=O)N2CCC[C@H]2C(=O)N[C@@H](CC(=O)O)C(=O)NCCCCCC(=O)O)[C@@H](C)CC)NC(=O)[C@H]([C@@H](C)CC)NC(=O)[C@@H]2C[C@@H]3CCCC[C@@H]3N2C(=O)[C@@H]2CCCN2C(=O)[C@H](CC(C)C)NC(=O)[C@H](CO)NC(=O)[C@H](CCCNC(=N)N)NC(=O)[C@H](CO)NC1=O) [Example 465: ((N-Me)G)-IC+SRSLP-(Oic)-I-(Pen)+IPD-(Ahx)-OH]
170 nM | 70 nM | [Sar]ICSRSLP[Oic]I[Pen]IP[Dap]-OH (disulfide 3-11; also: Dap at position 14 joined through its 3-amino group) [Example 467: ((N-Me)G)-IC+SRSLP-(Oic)-I-(Pen)+IP-(*Dap)-OH]

The remaining lines, values behind:

Binder | rat MASP1 IC50 [1] | rat MASP2 IC50 [2]
[Nip(3R)]ICSRSLP[Oic]I[Pen]I-OH (disulfide 3-11; N-terminus assumed; SMILES CC[C@H](C)[C@H](NC(=O)[C@H]1NC(=O)[C@H]([C@@H](C)CC)NC(=O)[C@@H]2C[C@@H]3CCCC[C@@H]3N2C(=O)[C@@H]2CCCN2C(=O)[C@H](CC(C)C)NC(=O)[C@H](CO)NC(=O)[C@H](CCCNC(=N)N)NC(=O)[C@H](CO)NC(=O)[C@@H](NC(=O)[C@@H](NC(=O)[C@@H]2CCCNC2)[C@@H](C)CC)CSSC1(C)C)C(=O)O) [Example 459: ((R)-Piperidine-3-carboxylic acid)-IC+SRSLP-(Oic)-I-(Pen)+I-OH] | 180 nM | 51 nM
[NMeA]ICSRSLP[Oic]I[Pen]IP[(N-Benzyl)D]-NH2 (disulfide 3-11) [Example 462: ((N-Me)A)-IC+SRSLP-(Oic)-I-(Pen)+IP-((N-Benzyl)D)-NH2] | 160 nM | 150 nM
[Sar]ICSRSLP[Oic]I[Pen]IP[βPro(3S)]-OH (disulfide 3-11; N-terminus assumed; SMILES CC[C@H](C)[C@H](NC(=O)CNC)C(=O)N[C@H]1CSSC(C)(C)[C@@H](C(=O)N[C@H](C(=O)N2CCC[C@H]2C(=O)N2CC[C@H](C(=O)O)C2)[C@@H](C)CC)NC(=O)[C@H]([C@@H](C)CC)NC(=O)[C@@H]2C[C@@H]3CCCC[C@@H]3N2C(=O)[C@@H]2CCCN2C(=O)[C@H](CC(C)C)NC(=O)[C@H](CO)NC(=O)[C@H](CCCNC(=N)N)NC(=O)[C@H](CO)NC1=O) [Example 456: ((N-Me)G)-IC+SRSLP-(Oic)-I-(Pen)+IP-((S)-Pyrrolidine-3-carboxylic acid)-OH] | 39 nM | 30 nM
[Sar]ICSRSLP[Oic]I[Pen]IP[β3hP]-OH (disulfide 3-11; N-terminus assumed; SMILES CC[C@H](C)[C@H](NC(=O)CNC)C(=O)N[C@H]1CSSC(C)(C)[C@@H](C(=O)N[C@H](C(=O)N2CCC[C@H]2C(=O)N2CCC[C@H]2CC(=O)O)[C@@H](C)CC)NC(=O)[C@H]([C@@H](C)CC)NC(=O)[C@@H]2C[C@@H]3CCCC[C@@H]3N2C(=O)[C@@H]2CCCN2C(=O)[C@H](CC(C)C)NC(=O)[C@H](CO)NC(=O)[C@H](CCCNC(=N)N)NC(=O)[C@H](CO)NC1=O) [Example 455: ((N-Me)G)-IC+SRSLP-(Oic)-I-(Pen)+IP-(beta-homo-P)-OH] | 41 nM | 32 nM
[X11]ICSRSLP[Oic]I[Pen]I-OH (disulfide 3-11; N-terminus assumed; SMILES CC[C@H](C)[C@H](NC(=O)[C@H]1NC(=O)[C@H]([C@@H](C)CC)NC(=O)[C@@H]2C[C@@H]3CCCC[C@@H]3N2C(=O)[C@@H]2CCCN2C(=O)[C@H](CC(C)C)NC(=O)[C@H](CO)NC(=O)[C@H](CCCNC(=N)N)NC(=O)[C@H](CO)NC(=O)[C@@H](NC(=O)[C@@H](NC(=O)[C@H]2CCCNC2)[C@@H](C)CC)CSSC1(C)C)C(=O)O) [Example 460: ((S)-Piperidine-3-carboxylic acid)-IC+SRSLP-(Oic)-I-(Pen)+I-OH] | 210 nM | 69 nM
[Sar]ICSRSLP[Oic]I[Pen]IP[X9]-OH (disulfide 3-11; N-terminus assumed; SMILES CC[C@H](C)[C@H](NC(=O)CNC)C(=O)N[C@H]1CSSC(C)(C)[C@@H](C(=O)N[C@H](C(=O)N2CCC[C@H]2C(=O)N2CCC[C@H]2CCC(=O)O)[C@@H](C)CC)NC(=O)[C@H]([C@@H](C)CC)NC(=O)[C@@H]2C[C@@H]3CCCC[C@@H]3N2C(=O)[C@@H]2CCCN2C(=O)[C@H](CC(C)C)NC(=O)[C@H](CO)NC(=O)[C@H](CCCNC(=N)N)NC(=O)[C@H](CO)NC1=O) [Example 453: ((N-Me)G)-IC+SRSLP-(Oic)-I-(Pen)+IP-((S)-3-(1-Pyrrolidine-2-yl)-propionic acid)-OH] | 38 nM | 32 nM
X14-ICSRSLP[Oic]I[Pen]IPD-OH (disulfide 2-10; SMILES CC[C@H](C)[C@H](NC(=O)CN1CC(=O)NC1=O)C(=O)N[C@H]1CSSC(C)(C)[C@@H](C(=O)N[C@H](C(=O)N2CCC[C@H]2C(=O)N[C@@H](CC(=O)O)C(=O)O)[C@@H](C)CC)NC(=O)[C@H]([C@@H](C)CC)NC(=O)[C@@H]2C[C@@H]3CCCC[C@@H]3N2C(=O)[C@@H]2CCCN2C(=O)[C@H](CC(C)C)NC(=O)[C@H](CO)NC(=O)[C@H](CCCNC(=N)N)NC(=O)[C@H](CO)NC1=O) [Example 457: ((2,4-dioxoimidazolidin-1-yl)acetic acid)-IC+SRSLP-(Oic)-I-(Pen)+IPD-OH] | 20 nM | 5 nM
[Sar]ICSRSLP[Oic]I[Pen]IPN-OH (disulfide 3-11; N-terminus assumed; SMILES CC[C@H](C)[C@H](NC(=O)CNC)C(=O)N[C@H]1CSSC(C)(C)[C@@H](C(=O)N[C@H](C(=O)N2CCC[C@H]2C(=O)N[C@@H](CC(N)=O)C(=O)O)[C@@H](C)CC)NC(=O)[C@H]([C@@H](C)CC)NC(=O)[C@@H]2C[C@@H]3CCCC[C@@H]3N2C(=O)[C@@H]2CCCN2C(=O)[C@H](CC(C)C)NC(=O)[C@H](CO)NC(=O)[C@H](CCCNC(=N)N)NC(=O)[C@H](CO)NC1=O) [Example 454: ((N-Me)G)-IC+SRSLP-(Oic)-I-(Pen)+IPN-OH] | 127 nM | 79 nM
AICSRSLP[Oic]I[Pen]IP[βDap]-OH (disulfide 3-11; also: Dap at position 14 joined through its 3-amino group) [Example 458: AIC+SRSLP-(Oic)-I-(Pen)+IP-(*Dap)-OH] | 250 nM | 100 nM
[Sar]ICSRSLP[Oic]I[Pen]IP[X4]-OH (disulfide 3-11; N-terminus assumed; SMILES CC[C@H](C)[C@H](NC(=O)CNC)C(=O)N[C@H]1CSSC(C)(C)[C@@H](C(=O)N[C@H](C(=O)N2CCC[C@H]2C(=O)N[C@@H]2CC[C@H](C(=O)O)C2)[C@@H](C)CC)NC(=O)[C@H]([C@@H](C)CC)NC(=O)[C@@H]2C[C@@H]3CCCC[C@@H]3N2C(=O)[C@@H]2CCCN2C(=O)[C@H](CC(C)C)NC(=O)[C@H](CO)NC(=O)[C@H](CCCNC(=N)N)NC(=O)[C@H](CO)NC1=O) [Example 452: ((N-Me)G)-IC+SRSLP-(Oic)-I-(Pen)+IP-((1S,3R)-3-(Amino)cyclopentanecarboxylic acid)-OH] | 36 nM | 37 nM
